One experiment addresses sAPPα (UniProt P05067). In words: dot blot, antigen dilution series on nitrocellulose (first dot 1 pmol), antibody 0.2 µg/ml, densitometry.
For experiment [1], the target named is Aβ(1-42) globulomer (human). In words: dot blot, antigen dilution series on nitrocellulose, antibody 0.2 µg/ml, densitometry.
The target in another experiment is Aβ(1-42) fibril (human). The experiment is described as above.

Data on 1 molecule can be found in patent publication US20150218261A1.

Bounds are passed on as bounds.

Sequence of Aβ(1-42) fibril (human) (peptide, as listed by the source): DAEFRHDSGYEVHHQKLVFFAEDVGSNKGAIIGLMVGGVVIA
Sequence of Aβ(1-42) globulomer (human) (peptide, as listed by the source): as above

B1: humanized monoclonal anti-Aβ antibody 4D10hum#1 (antibody, human IgG1, kappa, V domains shown)
VH: EVQLVESGGGLVQPGGSLRLSCAVSGFTLSSYGVHWVRQAPGKGLEWLGVIWRGGRIDYNAAFMSRLTISKDNSKSTVYLQMNSLRAEDTAVYYCARNSDVWGQGTTVTVSS
VL: DVVMTQTPLSLPVTPGQPASISCKSSQSLLDIDGKTYLNWLLQKPGQSPQRLIYLVSKLDSGVPDRFSGSGSGTDFTLKISRVEAEDVGVYYCWQGTHFPYTFGQGTKLEIKR
Regarding B1, the figures for the dot blot quantification (relation between recognition of Aβ(20-42) globulomer and the respective Aβ form) (in the experiment with sAPPα; in experiment [1]; with Aβ(1-42) fibril (human)) were > 100, > 10000 and > 10000, respectively.
